Measurements: patent US20220406376A1 (MacroGenics, published 2022)

Assays:
[1] = target: T1, HER2/neu on the surface of target cells (N87, JIMT-1, MCF-7, MDA-MB231) (UniProt P04626 23-1255, limits assumed); assay: flow cytometry on JIMT-1 cells, anti-hFc APC MFI
T1 construct: whole, on cells
Description: (§1) CD137×TA Binding Molecules, DART-B, DART-D, DART-G and the control molecules DART-3 and DART-6 were additionally evaluated for their ability to bind to HER2/neu expressed on N87 cells (FIG. 13A) and JIMT-1 cells (FIG. 13B). For such evaluation, 100 μL of HER2/neu expressing target cells (1.0×1⁰⁶ cells/mL) and 100 μL of serially diluted (5- or 10-fold dilutions) test article (bispecific diabody) were added to each well of microtiter assay plate(s), mixed and incubated at RT for 45 min. The cells were washed with FACS Buffer and secondary antibody (anti-human-Fc region-APC) was then added to each well; mixed and incubated at RT for 30 min. Cells were washed and resuspended in 100 μL FACS Buffer and analyzed by flow cytometry (BD LSR Fortessa or FACSCanto 11) for cell event collection. Data analysis were performed via FloJo v10.

[2] = target: T2, CD137 on the surface of cells (activated human T cells; engineered CHO cells) (human, UniProt Q07011 24-255); assay: flow cytometry on CD137-expressing CHO cells (CHO/137), anti-hFc APC MFI
T2 construct: whole, on cells; also called human CD137; cell surface expressed CD137
T2 sequence (Q07011 24-255, change not shown): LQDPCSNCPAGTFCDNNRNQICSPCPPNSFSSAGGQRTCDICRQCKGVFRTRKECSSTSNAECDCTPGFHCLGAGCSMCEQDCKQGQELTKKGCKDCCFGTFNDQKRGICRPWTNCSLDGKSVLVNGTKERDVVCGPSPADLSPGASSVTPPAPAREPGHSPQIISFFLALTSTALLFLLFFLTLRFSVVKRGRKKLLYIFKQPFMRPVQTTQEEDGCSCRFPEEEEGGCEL

[3] = target: T1, HER2/neu on the surface of target cells …; assay: flow cytometry on N87 cells, anti-hFc APC MFI
Description: as §1

[4] = target: T3, extracellular portion of cynomolgus monkey CD137 fused to a histidine-containing peptide (cynomolgus monkey, UniProt A9YYE7 24-186); assay: SPR (BIACORE); molecule captured on anti-human Fc; cynoCD137 6.25-100 nM; 1:1 Langmuir
T3 construct: extracellular domain; also called cynoCD137
T3 sequence: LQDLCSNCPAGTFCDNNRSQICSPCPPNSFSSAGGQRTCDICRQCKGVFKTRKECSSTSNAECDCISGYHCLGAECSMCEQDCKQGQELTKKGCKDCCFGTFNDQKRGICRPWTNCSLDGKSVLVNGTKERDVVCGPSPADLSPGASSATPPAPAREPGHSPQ
Description: (§2) The amino acid sequences of these clones were incorporated into the 5 chain diabody DART-G to yield optimized DART-G molecules (designated as DART-G1, DART-G2; DART-G3, and DART-G4). The binding affinity of DART-G2, DART-G3, and DART-G4 were evaluated via BIAcore (Table 11). For such evaluation, His-tagged soluble human CD137 (huCD137) or cynomolgus monkey CD137 (cynoCD137) (containing an extracellular portion of human or cynomolgus monkey CD137 fused to a histidine-containing peptide) was passed over a surface coated with immobilized antibody. Briefly, each test molecule was captured onto an F(ab)₂ goat-anti-human Fc-coated surface and then incubated in the presence of different concentrations (6.25-100 nM) of huCD137 or cynoCD137. The kinetics of binding were determined via BIACORE® analysis binding (normalized 1:1 Langmuir binding model).

[5] = target: T2, CD137 on the surface of cells …; assay: flow cytometry on activated pan T cells gated CD8, anti-hFc APC MFI
[6] = target: T2, CD137 on the surface of cells …; assay: as above; remark: listed apart in the source
[7] = target: T1, HER2/neu on the surface of target cells …; assay: flow cytometry on N87 gastric cancer cells, anti-hFc APC MFI
[8] = target: T4, extracellular portion of human CD137 fused to a histidine-containing peptide (human, UniProt Q07011 24-186); assay: SPR (BIACORE); molecule captured on anti-human Fc; huCD137 6.25-100 nM; 1:1 Langmuir
T4 construct: extracellular domain; also called huCD137; His-tagged soluble human CD137
Description: as §2

[9] = target: T1, HER2/neu on the surface of target cells …; assay: flow cytometry on N87 gastric cancer cells, anti-hFc APC MFI; remark: listed apart in the source
[10] = target: T2, CD137 on the surface of cells …; assay: flow cytometry on activated CD8+ T cells (CD8 FITC), anti-hFc APC MFI
[11] = target: T3, extracellular portion of cynomolgus …; assay: SPR (BIACORE); molecule captured on anti-human Fc; cynoCD137 6.25-100 nM; column head ×10^-4 applied as printed
Description: as §2

B1: DART-D (bispecific antibody, human IgG1, kappa, L234A L235A)
heavy: QVQLVQSGAEVKKPGASVKVSCKASGYTFTNYGMNWVRQAPGQGLEWMGWINTNIGEPTYTEEFKGRVTMTRDTSISTAYMELSRLRSDDTAVYYCARDDGYGNRVSYWGQGTLVTVSSASTKGPSVFPLAPSSKSTSGGTAALGCLVKDYFPEPVTVSWNSGALTSGVHTFPAVLQSSGLYSLSSVVTVPSSSLGTQTYICNVNHKPSNTKVDKRVEPKSCDKTHTCPPCPAPEAAGGPSVFLFPPKPKDTLMISRTPEVTCVVVDVSHEDPEVKFNWYVDGVEVHNAKTKPREEQYNSTYRVVSVLTVLHQDWLNGKEYKCKVSNKALPAPIEKTISKAKGQPREPQVYTLPPSREEMTKNQVSLSCAVKGFYPSDIAVEWESNGQPENNYKTTPPVLDSDGSFFLVSKLTVDKSRWQQGNVFSCSVMHEALHNRYTQKSLSLSPGK
light: DIQMTQSPSSLSASVGDRVTITCKASQDISNYLSWFQQKPGKAPKTLIYRANRLQSGVPSRFSGSGSGTDFTLTISSLQPEDFATYYCLQHDEFPWTFGQGTKLEIKRTVAAPSVFIFPPSDEQLKSGTASVVCLLNNFYPREAKVQWKVDNALQSGNSQESVTEQDSKDSTYSLSSTLTLSKADYEKHKVYACEVTHQGLSSPVTKSFNRGEC
chain 1: QVQLVQSGAEVKKPGASVKVSCKASGYTFTNYGMNWVRQAPGQGLEWMGWINTNIGEPTYTEEFKGRVTMTRDTSISTAYMELSRLRSDDTAVYYCARDDGYGNRVSYWGQGTLVTVSSASTKGPSVFPLAPSSKSTSGGTAALGCLVKDYFPEPVTVSWNSGALTSGVHTFPAVLQSSGLYSLSSVVTVPSSSLGTQTYICNVNHKPSNTKVDKRVEPKSCDKTHTCPPCPAPEAAGGPSVFLFPPKPKDTLMISRTPEVTCVVVDVSHEDPEVKFNWYVDGVEVHNAKTKPREEQYNSTYRVVSVLTVLHQDWLNGKEYKCKVSNKALPAPIEKTISKAKGQPREPQVYTLPPSREEMTKNQVSLWCLVKGFYPSDIAVEWESNGQPENNYKTTPPVLDSDGSFFLYSKLTVDKSRWQQGNVFSCSVMHEALHNHYTQKSLSLSPGGGGSGGGSGGGDIQMTQTTSSLSASLGDRVTISCRPSQDISNYLNWYQQKPDGTVKLLIYYTSRLRSGVPSRFSGSGSGTDYSLTISNLEQEDIATYFCQQGDTLPYTFGGGTKLEIKGGGSGGGGQVQLQQPGAELVRPGASVKLSCKASGYTFTSYWINWVKQRPGQGLEWIGNIYPSDSYTNYNQKFKDKATLTVDKSSSTAYMQLSSPTSEDSAVYYCTRDYGSSYSFDYWGQGTTLTVSSGGCGGGEVAALEKEVAALEKEVAALEKEVAALEK
chain 2: DIQMTQTTSSLSASLGDRVTISCRPSQDISNYLNWYQQKPDGTVKLLIYYTSRLRSGVPSRFSGSGSGTDYSLTISNLEQEDIATYFCQQGDTLPYTFGGGTKLEIKGGGSGGGGQVQLQQPGAELVRPGASVKLSCKASGYTFTSYWINWVKQRPGQGLEWIGNIYPSDSYTNYNQKFKDKATLTVDKSSSTAYMQLSSPTSEDSAVYYCTRDYGSSYSFDYWGQGTTLTVSSGGCGGGKVAALKEKVAALKEKVAALKEKVAALKE
- EC50 (read off the curve) [1]: ~0.03 µg/mL
- EC50 (read off the curve) [2]: ~0.02 µg/mL
- EC50 (read off the curve) [3]: ~0.07 µg/mL
- Kd [4]: 67 nM
- kon [4]: 460000 M⁻¹ s⁻¹
- EC50 (read off the curve) [5]: ~0.2 nM
- EC50 (read off the curve) [6]: ~0.2 nM
- EC50 (read off the curve) [7]: ~0.5 nM
- Kd [8]: 53 nM
- koff [8]: 0.025 s⁻¹
- kon [8]: 470000 M⁻¹ s⁻¹
- EC50 (read off the curve) [9]: ~0.5 nM
- EC50 (read off the curve) [10]: ~0.02 µg/mL
- koff [11]: 0.031 s⁻¹
